Results: patent US11279941B2, “Method for introducing protein into plant cell” (RIKEN, priority 2016, dated 2022)

How the values were obtained:
[1] = Hydrodynamic diameter and PDI by dynamic light scattering (DLS); type: physicochemical; conditions: protein not forming the complex (no carrier peptide)
Protocol: (§1) A solution of 1.0 g/l of the peptide ((BP100)2K or BP100(KH)9) was mixed with 2 μg of the protein (the BSA-RhB conjugate) at various peptide/protein molar ratios (1, 5, 10, and 25) at 25° C. for about 5 minutes to prepare carrier peptide/protein complexes, and the resultants were diluted to the final volume of 100 μl with autoclaved ultrapure water (MilliQ water). Thereafter, 10 µl of the solution was taken and further diluted to the final volume of 100 μl. The average hydrodynamic diameter of the complexes was measured via dynamic light scattering (DLS) using Zetasizer Nano-ZS (Malvern Instruments, Ltd., Worcestershire, U.K.). Polydispersion indexes (PDI) were determined with the zeta nanosizer (Zetasizer software ver 6.20) using He—Ne laser (633 nm) at 25° C. and a backscattering detection angle of 173°. Thereafter, the sample was further diluted to the total volume of 750 μl with autoclaved ultrapure water (MilliQ water), and the zeta potential was analyzed via laser Doppler microelectrophoresis using Zetasizer Nano-ZS. The zeta potential and zeta shift of the samples were measured three times and the average was determined with Zetasizer software ver 6.20.

[2] = Zeta potential by laser Doppler microelectrophoresis; type: physicochemical; conditions: protein not forming the complex (no carrier peptide)
Protocol: as §1

[3] = tested on: YFP-expressing Arabidopsis thaliana leaf; test: Quantification of peptide delivery efficiency (protein extracted from contacted leaf, PAGE fluorescence); type: in vivo; conditions: 6 hours after contact; for peptide/protein molar ratio at which the amount of the collected protein was the greatest: BSA-RhB
Protocol: (§2) About 100 μl of the solution of the carrier peptide/protein complex (the (BP100)2K/BSA-RhB or BP100(KH)9/BSA-RhB complex) prepared in Example 1 was brought into direct contact with an YFP-expressing Arabidopsis thaliana leaf at various peptide/protein molar ratios (1, 5, 10, and 25) with a needleless syringe. Also, about […] of the solution of the carrier peptide/protein complex (the (BP100)2Ks/ADH-RhB complex) prepared in Example 1 was brought into direct contact with an YFP-expressing Arabidopsis thaliana leaf at the peptide/protein molar ratio of 10.
A transgenic YFP-expressing Arabidopsis thaliana leaf was collected 6 hours after bringing it into contact with the (BP100)2K8/BSA-RhB or BP100(KH)9/BSA-RhB complex, and the leaf was washed 2 times with PBS (D-PBS(−), Wako Pure Chemical Industries Ltd., Osaka, Japan) to remove excess BSA-RhB on the leaf surface. Total crude protein extracted from the contacted leaf with 1× lysis buffer (Promega, Madison, U.S.A.) was subjected to 4 to 15% tris-glycine-sodium dodecyl sulfate (SDS)-polyacrylamide gel electrophoresis (PAGE) (Bio-rad, California, U.S.A.) at a constant voltage of 100 V. Thereafter, the BSA-RhB fluorescence was detected at the excitation light of 520 nm and the emission light of 605 nm with the Luminoimage analyzer (LAS-3000, Fujifilm Corporation, Tokyo, Japan). After detecting the fluorescence, the gel was stained with Coomassie blue G250 (Bio-rad, California, U.S.A.) to detect the Rubisco large subunit. The BSA-RhB fluorescence band density and the Coomassie blue-stained rbcL band density were quantified using Image J64 (NIH, Bethesda, Md.), and the BSA-RhB band density was normalized against the rbcL band density. SDS-PAGE was performed again based on the normalized data. The volume of the subjected crude protein in each sample was adjusted, in such a manner that the band density of Coomassie blue-stained rbcL bands would be equivalent to each other among all the tested samples, so as to attain the BSA-RhB band having the normalized fluorescence intensity. […] The total amount of the BSA-RhB protein collected from the contacted leaf was calculated in accordance with the formulae below.
The total amount (μg) of the BSA-RhB protein extracted per contacted leaf=(the amount (μg) of the protein corresponding to the RhB intensity measured per lane of the gel/the volume (μl) of the subjected crude protein per lane of the gel)×the total volume (l) of the extracted crude protein. […]
The obtained data are shown as the mean the standard deviation (SD) of the three tests. […] A statistic difference was determined at a statistic significance of p<0.05 via analysis of variance (ANOVA) and the Tukey's honestly significant difference (HSD) test.

[4] = tested on: YFP-expressing Arabidopsis thaliana leaf; test: Incorporation of carrier peptide/protein complex into cells (CLSM); type: in vivo; conditions: ADH-RhB alone, absence of carrier peptide, data not shown
Protocol: as §2
Incorporation of proteins into cells was quantitatively assayed using a confocal laser scanning microscope (CLSM, Carl Zeiss, Oberkochen, Germany). Intracellular delivery of the peptide/BSA-RhB complex or the peptide/ADH-RhB complex to an YFP-expressing Arabidopsis thaliana leaf was observed by detecting the YFP fluorescence at the excitation light of 488 nm and detecting the RhB fluorescence at the excitation light of 555 nm.

Molecule	Hydrodynamic diameter [1]	Zeta potential [2]	BSA-RhB extracted from the leaf ([3]; with or without carrier peptide)	peptide/protein molar ratio at which the amount of the collected protein was the greatest [3]	protein delivery capacity (BSA-RhB extracted from leaf) ([3]; all peptide/protein molar ratios (1-25))	ADH-RhB signal in leaf [4]
BSA-RhB: bovine serum albumin labeled with rhodamine B isothiocyanate, 4 RhB molecules per BSA [reference compound]	92±2 nm	−35.3±1.5 mV	extracted from the leaf only when the carrier peptide was used			
KKLFKKILKYLKHKHKHKHKHKHKHKHKH (SEQ ID NO: 24) [BP100(KH)9, carrier peptide]				5		
KKLFKKILKYLKKLFKKILKYLKKKKKKKK (SEQ ID NO: 23) [(BP100)2K8, carrier peptide, fusion of BP100 and oligolysine]				10	superior to that of the BP100(KH)9 fusion peptide	
ADH-RhB: alcohol dehydrogenase (150 kDa) labeled with rhodamine B isothiocyanate, 6 RhB molecules per ADH (conjugate) SIPETQKGVIFYESHGKLEYKDIPVPKPKANELLINVKYSGVCHTDLHAWHGDWPLPVKLPLVGGHEGAGVVVGMGENVKGWKIGDYAGIKWLNGSCMACEYCELGNESNCPHADLSGYTHDGSFQQYATADAVQAAHIPQGTDLAQVAPILCAGITVYKALKSANLMAGHWVAISGAAGGLGSLAVQYAKAMGYRVLGIDGGEGKEELFRSIGGEVFIDFTKEKDIVGAVLKATDGGAHGVINVSVSEAAIEASTRYVRANGTTVLVGMPAGAKCCSDVFNQVVKSISIVGSYVGNRADTREALDFFARGLVKSPIKVVGLSTLPEIYEKMEKGQIVGRYVVDTSK	168±7 nm	−43.1±1.1 mV				not detected
